Test system: K4 kissing-loop RNA reporter
Experiment: apparent KD of K4 kissing-loop reporter; higher = weaker reporter binding
Settings: Eterna round: R107
Experimental: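 RNA-MaP round R107: designed RNA switches with theophylline, tryptophan, arginine or FMN aptamers are transcribed on-chip within common flanks. They are titrated with a labelled K4 kissing-loop RNA reporter in RNA-MaP buffer (100 mM Tris pH 7.5, 80 mM KCl, 4 mM MgCl2), without ligand or with the indicated ligand. Median apparent KD per design.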

[1] = input ligand: theophylline 20 uM
[2] = input ligand: tryptophan 2.4 mM
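Also: bound reporter read as fluorescence of individual clusters on recovered sequencing chips by microscopy, with normalized cluster intensities fitted with a binding model.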

| Sequence | apparent KD of K4 kissing-loop reporter (input ligand: FMN 200 uM) [nM] | apparent KD of K4 kissing-loop reporter (input ligand: arginine 13.2 mM) [nM] | apparent KD of K4 kissing-loop reporter (input ligand: none) [nM] | apparent KD of K4 kissing-loop reporter [1] [nM] | apparent KD of K4 kissing-loop reporter [2] [nM] |
| --- | --- | --- | --- | --- | --- |
| UGAUAGGACAGAAGGAGCGGUAGUGAUGUUACCAAAAGGGUAAGGUGUCAAAAGACACCCUACCAGGUAGGUCGCUGUCCUAUCU | 110 | 96 | 104 | 84.3 | 82.8 |
| AAGGCACGGCUUCGGCCGUGCCAAAUAGAUACCAGCAUAAUAAUAUGCCCUUGGCAGCUAAAUAUAAAUUCAGUGAUGUUGGAUA [SS Theo A Tesla 2.2] | 573 | 412 | 604 | 649 | 546 |
| CAUACGCAUGGAGGAUAUGAGAUUUCUCAUGUCAUUUAAUAUUCUCAGUGAUGUUGAGAAUUUGGCUCAGAAGGCCAUGUGUAUG [Ex FMN B 20] | 254 | 465 | 508 | 426 | 403 |
| UCCUUUGUUGCCAGUGAUGUUGGACAGGAAGGAGCGGGCAUAAGCCCAGGUAGGUCGCCUGUCAACUUUCUUAUAGCCCUAAGGU [KL-XArg-A16] | 343 | 329 | 372 | 323 | 337 |
| UUUAUAUAGUCGGCCGCCACUGGAUUAAUAUUUGUAUAAUCUAGAUCAAAGUGAUGUUUUGAGUCCAGGACCGGGACAUUUGUUA [JR_ExcTryptoB_Sub006] | 539 | 391 | 486 | 525 | 427 |
| AAGAGCUAGGCGGCCGCCACUAGAUGUGAACACAUACAAACCAGUGAUGUUGGUAUGAUGGACAGUAGGACCGGGCCUAGCUGAA [Exclusion - Tryptophan B (Freestyle 10)] | 998 | 585 | 1010 | 1350 | 995 |
| AGUGCACUGUCAGGAUAUAUACAGUGAUGUUGUGUAUGUCAGCAAGUCAAAGACUUGCUUUUCUGUGUAGAAGGGACUGUGUACA [Omei KL FMN B Exc A v2] | 387 | 134 | 154 | 141 | 148 |
| GAAUUAAUGUCUUUAAUAUAAUAAUCAGAUACCAGUGAUUUGUGACACCCUUGGCAGCUGUAUAGAGUGAUGUUCUUAUACAUAA [#12 K4 Theophylline A Exclusion] | 352 | 460 | 409 | 509 | 279 |
| GGUAGCAUGGCGGCCGCCACUGUCUACUGAGGCGGAGUGAUGUUCCGGUUUAAAUAACAAGUUCACAGGACCGGGCCAUGCUACC | 382 | 400 | 462 | 471 | 141 |
| UGAUCUCGGCAGUGAUGUUGCAUAUGAGAAGGAGCGCACGAAAGUGCAGGUAGGUCGCUCAGCCACGACGAAAGUCGCGAGAUCU [#SwitchBubble 3 #K4Early] | 137 | 259 | 155 | 238 | 129 |
| GCUAUGGUAGGAAGGAGCGCUACCUUGUUUUUACGAGUGAUGUUCGGAAGCAGGGUGUUAAAGCAGGUAGGUCGCCUACUAUAGC [Arginine B K4 21] | 192 | 178 | 167 | 205 | 176 |
| AGUAUGUAAUAUGGCAUAUUUAGAACUGAAGGAGCGCCGAAUAAGGCAGGUAGGUCGCGGAAUCAUGAGUGAUGUUCAUGACUAU [KL-SSArg-A26] | 80.6 | 116 | 123 | 126 | 91.1 |
| AAGUGUUCUAGUGAUACCAGACAUUUCUAUUACAUUAAUAUAGCUAAGUGAUGUUUAGCAGUCCCUUGGCAGCACUAUUUCACUA [JR_SSTheophyB_Sub015] | 167 | 193 | 174 | 238 | 191 |
| AGACUACCACACUGUCAAUAGACAGUGUACUAGGAUAUGCUGAUAAGCAGAAGGAGUGAUGUUCCUAGGUAGUCAAUAAAAUAAU [FmnAX 13 U28] | 439 | 443 | 494 | 629 | 574 |
| CACCAUGAAUUCUCUAGGAGUGAUGUUUUUCGAGGACCGGUACGGCCGCCACUCGGACGAGGACCGUGGGAGCGGCGAACCGACU [ddfgmullin] | 172 | 74.7 | 208 | 334 | 150 |
| AAGCGUGUCGCGGCCGCCACUCCUGAGUGAUGUUCAGAAAGCAGUUUUUUAUUCAGGAAAAGCGCGAGGACCGGGCGACGCCGAU [theeternabot_sameState_KL_Trp_B_1] | 367 | 207 | 460 | 328 | 515 |
| CAUAGGAAACUAUGUUUCUCUCUUACUGAAGGAGCGCGUGAAAACGCAGGUAGGUCGCAGAAUUUGAGAGUGAUGUUCUCAAUAA [Ex Arginine A K4 13] | 114 | 149 | 151 | 167 | 116 |
| AGACUACUGACAGGAUAUAACAUCCUAGUCGUAUACCGAAAGGUAUACGAUUCCCUUCUAGUGAUGUUAGAAGGGUCGGUAGUCA [Omei KL FMN B Exc B v13] | 151 | 93.4 | 103 | 98.9 | 101 |
